In one data set the target is MLL1 PHD3 (Homo sapiens) (UniProt Q03164). The settings on record: cited from earlier work.
Data set [1] concerns the target T1, FL-Cyp33 (human, UniProt Q9UNP9 1-301). As to the kind of experiment: EMSA; EMSA: SELEX buffer (composition in S2 Table, not in material; physiological salt is 135 mM KCl, 15 mM NaCl) + 10% glycerol, 5 nM RNA, 0.5X TBE 8% PAGE at room temperature; NMR: SELEX buffer + 10% D2O, 25 C; pH not given. The settings on record: protein: recombinant, 6xHis-thrombin construct for NMR, hairpin (predicted).

The target of data set [2] is T1, FL-Cyp33. The data set can be described thus: EMSA; no quantifiable binding by gel shift; EMSA: SELEX buffer (composition in S2 Table, not in material; physiological salt is 135 mM KCl, 15 mM NaCl) + 10% glycerol, 5 nM RNA, 0.5X TBE 8% PAGE at room temperature; NMR: SELEX buffer + 10% D2O, 25 C; pH not given. The settings on record: protein: recombinant; 6xHis-thrombin construct for NMR; single strand.

The target of the next data set is Cyp33-Cyp (human, UniProt Q9UNP9 131-301). As to the kind of experiment: NMR 1H-15N HSQC; no significant perturbation; EMSA: SELEX buffer (composition in S2 Table, not in material; physiological salt is 135 mM KCl, 15 mM NaCl) + 10% glycerol, 5 nM RNA, 0.5X TBE 8% PAGE at room temperature; NMR: SELEX buffer + 10% D2O, 25 C; pH not given. The following applies: protein: recombinant; tags: C-terminal 6xHis, pET15b; label: 5'-32P (EMSA); hairpin (predicted).
Cyp33-Cyp, sequence (Q9UNP9 131-301): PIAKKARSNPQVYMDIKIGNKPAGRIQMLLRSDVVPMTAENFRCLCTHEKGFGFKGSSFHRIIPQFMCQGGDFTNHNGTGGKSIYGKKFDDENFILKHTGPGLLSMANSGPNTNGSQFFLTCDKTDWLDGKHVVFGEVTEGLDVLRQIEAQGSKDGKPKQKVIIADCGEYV

The term Kd denotes the constant that tells how readily two partners part at equilibrium.

T1 sequence (Q9UNP9 whole entry): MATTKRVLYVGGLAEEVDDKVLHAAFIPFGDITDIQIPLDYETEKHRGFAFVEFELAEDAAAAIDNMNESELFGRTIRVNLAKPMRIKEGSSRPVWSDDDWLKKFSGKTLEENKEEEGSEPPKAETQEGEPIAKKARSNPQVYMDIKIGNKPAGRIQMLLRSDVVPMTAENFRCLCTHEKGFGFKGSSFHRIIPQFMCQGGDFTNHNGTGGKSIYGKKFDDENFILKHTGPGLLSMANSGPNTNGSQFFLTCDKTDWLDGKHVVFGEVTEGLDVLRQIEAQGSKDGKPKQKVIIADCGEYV
MLL1 PHD3 (Homo sapiens), sequence (Q03164 1566-1627): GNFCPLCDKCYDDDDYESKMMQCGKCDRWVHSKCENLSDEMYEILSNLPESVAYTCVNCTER

As to Cyp33 RRM (from UniProt Q9UNP9), the Kd with MLL1 PHD3 (Homo sapiens) is 1.9 µM.

B1: SO-8 (structured_RNA)
RNA: AGAACAAUAAUUACAAAGACUGAGCGUUUUAAAGUCUCCUCAUGUGCCCCC
With B1, the Kd with FL-Cyp33 [1] (label: 5'-32P) was 24 ± 13 µM. With UGGCCGGCCCAUCCCGACUGCCGGGUGAUAGACUCUUUAGCGAUUUAUGG (structured_RNA) [SO-4], the Kd with FL-Cyp33 [1] (label: 5'-32P) is 55 ± 10 µM. Take AGUGAUAAUUAA (ssRNA) [SO-1 single-stranded region 12-mer]: the binding result in the data set with FL-Cyp33 [2] is on record as “no binding”.

For AAUAAUAA (ssRNA) [AAUAAUAA k-mer], in the data set with FL-Cyp33 [2], the binding result was “no binding”. As to AGGUGCCUCAAAUCCGCAUAAGAAUAACAACAUGGAGUGAAGCGCUCCCC (structured_RNA) [SO-6], in the data set with FL-Cyp33 [1] (label: 5'-32P), the Kd was 36 ± 10 µM.

For CAGGUGUGUGACUACGAAAGAACAAUAAUAACACAAAAGAGUCCCGUGCC (structured_RNA) [SO-2], the Kd in the data set with FL-Cyp33 [1] (label: 5'-32P) is 21 ± 3.1 µM. On the same count and under the same terms, then AAAGUGAGAUAAGGUAACAACAAGAAUAAUAAUAUACCUAUCAUCUUGCC (structured_RNA) [SO-9], with ~90 µM.

In the case of UGGUAGACCAGUGAUAAUUAACCUGAUGCGUGGAGGAUAUCGAGUUGUCC (structured_RNA) [SO-1], the Kd with FL-Cyp33 [1] (label: 5'-32P (EMSA)) was 6.6 ± 0.6 µM. The binding result with Cyp33-Cyp was “no binding”. Turning to UGGUAGACCAGUGAUAAUUAACCUGAUG (structured_RNA) [SO-3], in the data set with FL-Cyp33 [1] (label: 5'-32P), the Kd was 32 ± 2.5 µM.

The record behind these values is PMC7894885, “Cyp33 binds AU-rich RNA motifs via an extended interface that competitively disrupts the gene repressive Cyp33-MLL1 interaction in vitro”.
